Data published in PMC3097237, “Exploiting Nucleotide Composition to Engineer Promoters”.

T1: TFIIB (UniProt Q00403)
T1 sequence: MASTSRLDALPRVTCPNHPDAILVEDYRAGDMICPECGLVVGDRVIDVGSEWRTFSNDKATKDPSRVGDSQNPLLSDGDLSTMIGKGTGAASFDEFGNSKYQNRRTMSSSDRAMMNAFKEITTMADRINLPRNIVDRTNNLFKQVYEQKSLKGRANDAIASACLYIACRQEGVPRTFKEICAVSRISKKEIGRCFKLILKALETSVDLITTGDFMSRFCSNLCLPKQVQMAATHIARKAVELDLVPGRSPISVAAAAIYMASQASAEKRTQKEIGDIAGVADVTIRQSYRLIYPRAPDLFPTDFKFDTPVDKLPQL


Assays:
TFIIB [1] = biological target: T1, TFIIB; test: BLI; conditions: BLI (ForteBio Octet QK), streptavidin sensors loaded with biotinylated DNA 25 ug/ml, 1x Kinetics Buffer (ForteBio); salt, pH and temperature not stated
TFIIB [2] = biological target: TFIIB (UniProt Q00403 1-316); test: BLI; kon 3.03E+04 1/Ms; koff 1.93E-03 1/s; 270 nM TFIIB; BLI (ForteBio Octet QK), streptavidin sensors loaded with biotinylated DNA 25 ug/ml, 1x Kinetics Buffer (ForteBio); salt, pH and temperature not stated; conditions: protein: commercial; label: 5' biotin (one strand, PCR primer)

| Molecule | Kd (TFIIB [1]) [nM] | Kd (TFIIB [2]) [nM] |
| --- | --- | --- |
| AACGGTGCGCGTTAAAACGCCGACGCGTCATAACCGCGACTCGTCGACGCAGCGCCGGCGTATAAGCGCGCCGTACGTCAACCGTCGACGTTAGTCCGACGATCGCGGCGTCTATACGCCGCGTCAATCGCGCGCGGTTCAACGTCGCGCTACGGGCGCGTATAAGTCGCGCGGTTAATACGCGCGGTGTACGCGGATGCCGGGGTCGCGTATAATCGGCGCGTATACCTCGCGCGTATACGCGGCGTATTACGGCCGCGTATAATTCGCGCGTATGGACCGCGTACGTCCTACGAGCGT (double strand) [ArS300] | 64.6 | – |
| AACGGTGCGCGTTAAAACGGCCGACGCGTCATAACCGCGACTCGTCGACGCAGCGCCGGCGTATAAGCGCGCCGTACGTCAACCGTCGACGTTAGTCCGACGATCGCGGCGTCTATACGCCGCGTCAATCGCGCGCGGTTCAACGTCGCGCTACGGGCGCGTATAAGTCGCGCGTATGGACCGCGTACGTCCTACGAGCGT (double strand) [ArS201] | 77.6 | – |
| TCGACGCGCGTATAACACGCGAGCGGTTCGAACGTTGGCGCGCTAACGCGAGTCGTACGCCCGTCAACGCGGATCAATCGCGCGACTTGTGCGCGACGTTAGACCGCCGATCGTCAAGCGCCGATCGGTAATCGGACGATTCGGATACGCGAGTTCGGACGTACGAGCGTGATACGGCGCGTAACGGTGCGCGTTAAAACGCCGACGCGTCATAACCGCGACTCGTCGACGC (double strand) [ArS232] | 84.5 | – |
| ArS110 (dsDNA) DNA 1: CTACGCCGCGTAAATATCGCGCGCTAACGGTGCGCGTTAAAACGCCGACGCGTCATAAAGCGCCGGCGTATAAGCGCGCCGTACGTCGTCGAACCACGTTAGTCCGGACC DNA 2: GGTCCGGACTAACGTGGTTCGACGACGTACGGCGCGCTTATACGCCGGCGCTTTATGACGCGTCGGCGTTTTAACGCGCACCGTTAGCGCGCGATATTTACGCGGCGTAG | – | 63.7 |
